# Results as given in patent US8575113.
# B1: caspase-3 (protein)
# chain: SGISLDNSYKMDYPEMGLCIIINNKNFHKSTGMTSRSGTDVDAANLRETFRNLKYEVRNKNDLTREEIVELMRDVSKEDHSKRSSFVCVLLSHGEEGIIFGTNGPVDLKKITNFFRGDRCRSLTGKPKLFIIQACRGTELDCGIETDSGVDDDMACHKIPVEADFLYAYSTAPGYYSWRNSKDGSWFIQSLCAMLKQYADKLEFMHILTRVNRKVATEFESFSFDATFHAKKQIPCIVSMLTKELYFYH
# What was measured:
# [1] = biological target: GST-XIAP linker BIR 2 [GST: P08515]
# [2] = biological target: GST-linker BIR 2 BIR3Ring
# GST-linker BIR 2 BIR3Ring, sequence (chain, as listed by the source): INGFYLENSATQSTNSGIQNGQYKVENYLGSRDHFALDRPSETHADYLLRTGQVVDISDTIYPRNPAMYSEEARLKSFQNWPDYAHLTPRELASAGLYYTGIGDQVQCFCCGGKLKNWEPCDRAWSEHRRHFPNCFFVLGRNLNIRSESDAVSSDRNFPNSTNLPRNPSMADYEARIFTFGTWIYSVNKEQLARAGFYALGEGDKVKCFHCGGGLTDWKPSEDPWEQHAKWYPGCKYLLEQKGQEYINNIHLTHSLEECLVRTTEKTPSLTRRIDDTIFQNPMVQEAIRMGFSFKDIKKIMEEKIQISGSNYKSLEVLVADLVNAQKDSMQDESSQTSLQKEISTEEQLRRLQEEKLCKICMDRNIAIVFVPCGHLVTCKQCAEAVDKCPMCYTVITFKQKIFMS
protein,measurement,setting,value
B1,"Caspase 3 activity (DEVD-AMC hydrolysis, Vo of AMC fluorescence/sec)",[1],caspase-3 was inhibited by linker-BIR2 or linker BIR2-BIR3-RING of XIAP
same,"Caspase 3 activity (DEVD-AMC hydrolysis, Vo of AMC fluorescence/sec)",[2],caspase-3 was inhibited by linker-BIR2 or linker BIR2-BIR3-RING of XIAP
